Laboratory results taken from US20130183315A1 (GLENMARK PHARMACEUTICALS S A, published 2013).

T1: recombinant human OX40-his protein (human, UniProt P43489 29-214)
T1 construct: Secretion driven by the native signal peptide of human TNFRSF4; also called recombinant histidine tagged human OX40 receptor extracellular domain; recombinant monovalent human OX40 receptor extracellular domain
T1 sequence: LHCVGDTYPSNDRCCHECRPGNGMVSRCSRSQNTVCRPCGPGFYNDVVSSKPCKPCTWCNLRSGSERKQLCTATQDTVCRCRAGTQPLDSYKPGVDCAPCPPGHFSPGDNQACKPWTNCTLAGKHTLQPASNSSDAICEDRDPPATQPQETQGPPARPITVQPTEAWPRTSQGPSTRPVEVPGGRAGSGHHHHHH


Biological target: T1, recombinant human OX40-his protein
Assay: SPR (BIAcore): antibody captured on protein A chip, human OX40-his as analyte
Method: (§1) Kinetic binding affinity constants (KD) were measured on protein-A captured antibody using recombinant histidine tagged human OX40 receptor extracellular domain as described in Example 1 as analyte. Measurements were conducted on a BIAcore 2000 (GE Healthcare—BIAcore, Uppsala, Sweden) at room temperature, and analyzed with the BiaEvaluation software (BIAcore; v4.1).
(§2) A CMS research grade sensor chip (GE Healthcare Europe GmbH, Glattbrugg, Switzerland; BR-1000-14) was activated by injecting 35 μl of a 1:1 N-hydroxysulfosuccinimide (NHS)/1-Ethyl-3-[3-dimethylaminopropyl]carbodiimide Hydrochloride (EDC) solution (v/v; 5 μl/min flow-rate; on flow paths 1 and 2). Protein-A (ref. P7837; Sigma-Aldrich Chemie GmbH, Buchs, Switzerland) was diluted to a final concentration of 50 μg/ml in acetate buffer pH 4.5 (GE, BR-1003-50; one pH unit below pI) and subsequently immobilized on the previously activated CMS sensor chip by injecting 35 μl on both flow path 1 and 2 (5 μl/min); this corresponded to approximately 1500 response units (RUs). The protein-A-CMS sensor chip was then deactivated by injecting 35 μl of ethanolamine solution (5 μl/min). Finally, two injections of 10 μl of glycine solution (GE, ref BR-1003-54; 10 mM; pH 1.5) were performed to release non-crosslinked protein-A molecules.
(§3) 10 μl of this diluted stock were subsequently injected on the flow-path 2 of the protein-A CMS chip (30 μl/min) to reach 200-250 RUs. Following this capture step, the recombinant histidine tagged human OX40 receptor extracellular domain was injected at different concentrations (50 nM to 0.4 μM) on the flow-path 1 and 2 (flow-path 1 being used as reference) at a 30 μl/min flow rate. After each binding event, surface was regenerated with glycine buffer pH 1.5 injected for 1 min (10 μl/min)

Binder | binding result
VH3/VL2 (antibody, human IgG1, kappa, V domains shown, Humanized, IGHG1, kappa) VH: QVTLKESGPALVKPTQTLTLTCTFSGFSLSTSGMGVSWIRQPPGKALEWIAHIWWDDDKYYSTSLKTRLTISKDTSKNQVVLTMTNMDPVDTATYYCARIDWDGFAYWGQGTLVTVSS VL: EIVLTQSPATLSLSPGERATLSCRASSSVSYYMAWYQQKPGQAPRLLIYATSNRATGIPARFSGSGSGTDFTLTISSLEPEDFAVYYCQQWSSNPWTFGQGTKVEIKR | no binding (tested: not printed)
VH3/VL1 (antibody, human IgG1, kappa, V domains shown, Humanized, IGHG1, kappa) VH: QVTLKESGPALVKPTQTLTLTCTFSGFSLSTSGMGVSWIRQPPGKALEWIAHIWWDDDKYYSTSLKTRLTISKDTSKNQVVLTMTNMDPVDTATYYCARIDWDGFAYWGQGTLVTVSS VL: EIVLTQSPATLSLSPGERATLSCRASSSVSYYLAWYQQKPGQAPRLLIYATSNRATGIPARFSGSGSGTDFTLTISSLEPEDFAVYYCQQWSSNPWTFGQGTKVEIKR | no binding (tested: not printed)
VH1/VL2 (antibody, human IgG1, kappa, V domains shown, Humanized, IGHG1, kappa) VH: QVTLKESGPALVKPTQTLTLTCTFSGFSLSTSGMGVSWIRQPPGKALEWIARIWWDDDKYYSTSLKTRLTISKDTSKNQVVLTMTNMDPVDTATYYCARIDWDGFAYWGQGTLVTVSS VL: EIVLTQSPATLSLSPGERATLSCRASSSVSYYMAWYQQKPGQAPRLLIYATSNRATGIPARFSGSGSGTDFTLTISSLEPEDFAVYYCQQWSSNPWTFGQGTKVEIKR | no binding (tested: not printed)
VH2/VL3 (antibody, human IgG1, kappa, V domains shown, Humanized, IGHG1, kappa) VH: QVTLKESGPALVKPTQTLTLTCSFSGFSLSTSGMGVSWIRQPPGKALEWIARIWWDDDKYYSTSLKTRLTISKDTSKNQVVLTMTNMDPVDTATYYCARIDWDGFAYWGQGTLVTVSS VL: EIVLTQSPATLSLSPGERATLSCRASSSVSYYLAWYQQKPGQAPRLLIYATSNRATGIPARFSGSGSGTDYTLTISSLEPEDFAVYYCQQWSSNPWTFGQGTKVEIKR | no binding (tested: not printed)
VH2/VL1 (antibody, human IgG1, kappa, V domains shown, Humanized, IGHG1, kappa) VH: QVTLKESGPALVKPTQTLTLTCSFSGFSLSTSGMGVSWIRQPPGKALEWIARIWWDDDKYYSTSLKTRLTISKDTSKNQVVLTMTNMDPVDTATYYCARIDWDGFAYWGQGTLVTVSS VL: EIVLTQSPATLSLSPGERATLSCRASSSVSYYLAWYQQKPGQAPRLLIYATSNRATGIPARFSGSGSGTDFTLTISSLEPEDFAVYYCQQWSSNPWTFGQGTKVEIKR | no binding (tested: not printed)
VH1/VL3 (antibody, human IgG1, kappa, V domains shown, Humanized, IGHG1, kappa) VH: QVTLKESGPALVKPTQTLTLTCTFSGFSLSTSGMGVSWIRQPPGKALEWIARIWWDDDKYYSTSLKTRLTISKDTSKNQVVLTMTNMDPVDTATYYCARIDWDGFAYWGQGTLVTVSS VL: EIVLTQSPATLSLSPGERATLSCRASSSVSYYLAWYQQKPGQAPRLLIYATSNRATGIPARFSGSGSGTDYTLTISSLEPEDFAVYYCQQWSSNPWTFGQGTKVEIKR | no binding (tested: not printed)

Other lines, results leading:

binding result | Binder
no binding (tested: not printed) | VH2/VL2 (antibody, human IgG1, kappa, V domains shown, Humanized, IGHG1, kappa) VH: QVTLKESGPALVKPTQTLTLTCSFSGFSLSTSGMGVSWIRQPPGKALEWIARIWWDDDKYYSTSLKTRLTISKDTSKNQVVLTMTNMDPVDTATYYCARIDWDGFAYWGQGTLVTVSS VL: EIVLTQSPATLSLSPGERATLSCRASSSVSYYMAWYQQKPGQAPRLLIYATSNRATGIPARFSGSGSGTDFTLTISSLEPEDFAVYYCQQWSSNPWTFGQGTKVEIKR
no binding (tested: not printed) | VH3/VL3 (antibody, human IgG1, kappa, V domains shown, Humanized, IGHG1, kappa) VH: QVTLKESGPALVKPTQTLTLTCTFSGFSLSTSGMGVSWIRQPPGKALEWIAHIWWDDDKYYSTSLKTRLTISKDTSKNQVVLTMTNMDPVDTATYYCARIDWDGFAYWGQGTLVTVSS VL: EIVLTQSPATLSLSPGERATLSCRASSSVSYYLAWYQQKPGQAPRLLIYATSNRATGIPARFSGSGSGTDYTLTISSLEPEDFAVYYCQQWSSNPWTFGQGTKVEIKR
no binding (tested: not printed) | VH1/VL1 antibody (antibody, human IgG1, kappa, V domains shown, Humanized, IGHG1, kappa; also called first humanized antibody) VH: QVTLKESGPALVKPTQTLTLTCTFSGFSLSTSGMGVSWIRQPPGKALEWIARIWWDDDKYYSTSLKTRLTISKDTSKNQVVLTMTNMDPVDTATYYCARIDWDGFAYWGQGTLVTVSS VL: EIVLTQSPATLSLSPGERATLSCRASSSVSYYLAWYQQKPGQAPRLLIYATSNRATGIPARFSGSGSGTDFTLTISSLEPEDFAVYYCQQWSSNPWTFGQGTKVEIKR

Biological target: T1, recombinant human OX40-his protein
Assay: SPR, antibody captured on protein A, OX40-his as analyte
Method: as §1, §2, §3

Kd | koff | kon | Binder
70 nM | 0.00312 s⁻¹ | 44500 M⁻¹ s⁻¹ | VH7/VL9 (antibody, human IgG1, kappa, V domains shown, Humanized, IGHG1, kappa; also called humanized variant VH7/VL9) VH: QVTLKESGPALVKPTQTLTLTCSFSGFSLSTSGMGVGWIRQPPGKALEWLAHIWWDDDKYYNTALKTRLTISKDTSKNQVVLTMTNMDPVDTATYYCARIDWDGFAYWGQGTLVTVSS VL: EIVLTQSPATLSLSPGERATLSCRASSSVSYMHWYQQKPGQAPRPWIYATSNRATGIPARFSGSGSGTDYTLTISSLEPEDFAVYYCQQWSSNPWTFGQGTKVEIKR

Biological target: T1, recombinant human OX40-his protein
Assay: SPR (BIAcore): antibody captured on protein A chip, human OX40-his as analyte; analyte concentration not given
Method: as §1, §2, §3

Binder | binding result
VH4/VL4 (antibody, human IgG1, kappa, V domains shown, Humanized, IGHG1, kappa) VH: QVTLKESGPALVKPTQTLTLTCSFSGFSLSTSGMGVSWIRQPPGKALEWIAHIWWDDDKYYSTSLKTRLTISKDTSKNQVVLTMTNMDPVDTATYYCARIDWDGFAYWGQGTLVTVSS VL: EIVLTQSPATLSLSPGERATLSCRASSSVSYYMAWYQQKPGQAPRLLIYATSNRATGIPARFSGSGSGTDYTLTISSLEPEDFAVYYCQQWSSNPWTFGQGTKVEIKR | binds
VH7/VL11 (antibody, human IgG1, kappa, V domains shown, Humanized, IGHG1, kappa) VH: QVTLKESGPALVKPTQTLTLTCSFSGFSLSTSGMGVGWIRQPPGKALEWLAHIWWDDDKYYNTALKTRLTISKDTSKNQVVLTMTNMDPVDTATYYCARIDWDGFAYWGQGTLVTVSS VL: EIVLTQSPATLSLSPGERATLSCRASSSVSYMHWYQQKPGQAPRLLIYATSNLASGIPARFSGSGSGTDYTLTISSLEPEDFAVYYCQQWSSNPWTFGQGTKVEIKR | binds
VH5/VL6 (antibody, human IgG1, kappa, Humanized, IGHG1, kappa) heavy: not shown light: QIVLTQSPATLSLSPGERATLSCRASSSVSYYMAWYQQKPGQAPRPWIYATSNRATGIPARFSGSGSGTDYTLTISSLEPEDFAVYYCQQWSSNPWTFGQGTKVEIKRTVAAPSVFIFPPSDEQLKSGTASVVCLLNNFYPREAKVQWKVDNALQSGNSQESVTEQDSKDSTYSLSSTLTLSKADYEKHKVYACEVTHQGLSSPVTKSFNRGEC | binds
VH7/VL7 (antibody, human IgG1, kappa, V domains shown, Humanized, IGHG1, kappa) VH: QVTLKESGPALVKPTQTLTLTCSFSGFSLSTSGMGVGWIRQPPGKALEWLAHIWWDDDKYYNTALKTRLTISKDTSKNQVVLTMTNMDPVDTATYYCARIDWDGFAYWGQGTLVTVSS VL: EIVLTQSPATLSLSPGERATLSCRASSSVSYMAWYQQKPGQAPRLLIYATSNRATGIPARFSGSGSGTDYTLTISSLEPEDFAVYYCQQWSSNPWTFGQGTKVEIKR | binds

Other lines, results leading:

binding result | Binder
binds | VH5/VL4 (antibody, human IgG1, kappa, V domains shown, Humanized, IGHG1, kappa) VH: QVTLKESGPALVKPTQTLTLTCSFSGFSLSTSGMGVSWIRQPPGKALEWIAHIWWDDDKYYNTALKTRLTISKDTSKNQVVLTMTNMDPVDTATYYCARIDWDGFAYWGQGTLVTVSS VL: EIVLTQSPATLSLSPGERATLSCRASSSVSYYMAWYQQKPGQAPRLLIYATSNRATGIPARFSGSGSGTDYTLTISSLEPEDFAVYYCQQWSSNPWTFGQGTKVEIKR
binds | VH7/VL8 (antibody, human IgG1, kappa, V domains shown, Humanized, IGHG1, kappa) VH: QVTLKESGPALVKPTQTLTLTCSFSGFSLSTSGMGVGWIRQPPGKALEWLAHIWWDDDKYYNTALKTRLTISKDTSKNQVVLTMTNMDPVDTATYYCARIDWDGFAYWGQGTLVTVSS VL: EIVLTQSPATLSLSPGERATLSCRASSSVSYMHWYQQKPGQAPRLLIYATSNRATGIPARFSGSGSGTDYTLTISSLEPEDFAVYYCQQWSSNPWTFGQGTKVEIKR
binds | VH5/VL5 (antibody, human IgG1, kappa, Humanized, IGHG1, kappa) heavy: not shown light: EIVLTQSPATLSLSPGERATLSCRASSSVSYYMAWYQQKPGQAPRPWIYATSNRATGIPARFSGSGSGTDYTLTISSLEPEDFAVYYCQQWSSNPWTFGQGTKVEIKRTVAAPSVFIFPPSDEQLKSGTASVVCLLNNFYPREAKVQWKVDNALQSGNSQESVTEQDSKDSTYSLSSTLTLSKADYEKHKVYACEVTHQGLSSPVTKSFNRGEC
